Patent US20240327505A1 (published 2024)

What was measured:
[1] = target: SARS-CoV-2 Nucleocapsid (N) protein (SARS-CoV-2, UniProt P0DTC9 1-419)
[2] = target: SARS-CoV-1 spike protein on pseudovirus (SARS-CoV-1, UniProt P59594 14-1255); experiment: cell-based or functional assay
[3] = target: SARS-CoV-2 Wuhan-1 full-length Spike protein on pseudovirus (SARS-CoV-2, UniProt P0DTC2 14-1273); experiment: cell-based or functional assay
[4] = target: SARS-CoV-2 spike protein on fully infectious (replication-competent) SARS-CoV-2 virus (SARS-CoV-2, UniProt P0DTC2 14-1273); experiment: cell-based or functional assay
[5] = target: T1, SARS-CoV-2 spike S2 protein (SARS-CoV-2, UniProt P0DTC2 686-1213); experiment: BLI, as in Example 4
T1 construct: domain: S2

[6] = target: SARS-CoV-2 spike S2 protein (SARS-CoV-2, UniProt P0DTC2 686-1213)
[7] = target: SARS-CoV-2 Nucleocapsid (N) protein (SARS-CoV-2, UniProt P0DTC9 1-419); remark: listed apart in the source

B1: AB-009112 (antibody, V domains shown)
VH: QVQLVESGGGVVQPGRSLRLSCAASGFTFSSYAMHWVRQAPGKGLEWVAVISYDGSNKYYADSVKGRFTISRDNSKNTLYLQMNSLRAEDTAVYYCASSLVGATKSYYYYYYGMDVWGQGTTVTVSS
VL: SYELTQPLSVSVALGQTARITCGGNNIGSKNVHWYQQKPGQAPVLVIYRDSNRPSGIPERFSGSNSGNTATLTISRAQAGDEADYYCQVWDSSSVVFGGGTKLTVL
- Kd [1]: 32.7 nM

B2: AB-009769 (antibody, V domains shown)
VH: EVQLVESGGGLVQPGGSLRLSCAASGFTFSSYWMSWVRQAPGKGLEWVANIKQDGSEKYYVDSVKGRFTISRDNAKNSLYLQMNSLRAEDTAVYYCARSPEVLWFGDPVLDNWFDPWGQGTLVTVSS
VL: SYELTQPPSVSVSPGQTARITCSGDALPKQYAYWYQQKPGQAPVLVIYKDSERPSGIPERFSGSSSGTTVTLTISGVQAEDEADYYCQSADSSGTYPVVFGGGTKLTVL
- Pseudovirus Neturalization [2]: > 50 µg/mL
- Pseudovirus Neturalization [3]: > 50 µg/mL
- Neutralization (Infectious virus; (µg/mL)) [4]: 24.5 µg/mL

B3: AB-009734 (antibody, V domains shown)
VH: QVHLVQSGAEVKTPGASVRVSCKASGYTFTSHYMHWVRQAPGQGLEWMGLINPSGSGTAYPQHFQGRVTMTRDTSTTTDYMDLSSLRSEDTAMYFCARMERSGAFDLWGQGTMVTVSS
VL: EIVLTQSPGTLSLSPGERATLSCRASQTISSRYLAWYYQKPGQAPRLLIQGSSIRATGIPDRFSGSGSGTDFTLTISRLEPEDFAVYYCQHYGSSPPMYTFGQGTKLEIK
- Pseudovirus Neturalization [2]: > 50 µg/mL
- Pseudovirus Neturalization [3]: 42.4 µg/mL
- Neutralization (Infectious virus; (µg/mL)) [4]: 21.4 µg/mL

B4: AB-009270 (antibody, V domains shown)
VH: QMQLVQSGPEVKKPGTSVKVSCKASGFTFTSSAMQWVRQARGQRLEWIGWIVVGSGNTNYAQKFQERVTITRDMSTSTAYMELSSLRSEDTAVYYCAVNYCSSTSCYDAFDIWGQGTMVTVSS
VL: not shown
- binding result [5]: no binding
- Pseudovirus Neturalization [2]: > 50 µg/mL
- Pseudovirus Neturalization [3]: 0.065 µg/mL
- Neutralization (Infectious virus; (µg/mL)) [4]: 1.37 µg/mL

B5: AB-010021 (antibody, V domains shown)
VH: QMQLVQSGPEVKKPGTSVKVSCKASGFTFTSSAVQWVRQARGQRLEWIGWIVVGSGNTNYAQKFQERVTITRDMSTSTAYMELSSLRSEDTAVYYCAAVYCSGGSCLDAFDIWGQGTMVTVSS
VL: not shown
notes: also called AB-0010021
- binding result [5]: no binding
- Pseudovirus Neturalization [2]: > 50 µg/mL
- Pseudovirus Neturalization [3]: 1.56 µg/mL

B6: AB-010020 (antibody, V domains shown)
VH: QMQLVQSGPEVKKPGTSVKVSCKASGFTFTSSAVQWVRQARGQRLEWIGWIVVGSGNTNYAQKFQERVTITRDMSTSTAYMELSSLRSEDTAVYYCAAPACSSTSCYDGFDIWGQGTMVTVSS
VL: not shown
- binding result [5]: no binding
- Pseudovirus Neturalization [2]: > 50 µg/mL
- Pseudovirus Neturalization [3]: 0.004 µg/mL

B7: AB-009119 (antibody, V domains shown)
VH: EVQLVESGGGLVQPGGSLKLSCAASGFTFSGSAMHWVRQASGKGLEWVGRIRSKANSYATAYAASVKGRFTISRDDSKNTAYLQMNSLKTEDTAVYYCTRHGTTVNWGQGTLVTVSS
VL: not shown
- Kd [6]: 0.0583 nM
- koff [6]: 2.56e-07 s⁻¹
- kon [6]: 4390 M⁻¹ s⁻¹
- Kd [1]: 7.35 nM
- koff [1]: 0.000647 s⁻¹
- kon [1]: 88000 M⁻¹ s⁻¹

B8: AB-009213 (antibody, V domains shown)
VH: EVQLVESGGGLVKPGGSLRLSCAASGFTFSSYSMNWVRQAPGKGLEWVSSISSSSSYIYYADSVKGRFTISRDNAKNSLYLQMNSLRAEDTAVYYCARDKLREDGDYDDAFDIWGQGTMVTVSS
VL: not shown
- Kd [1]: 10 nM
- koff [1]: 0.00112 s⁻¹
- kon [1]: 112000 M⁻¹ s⁻¹

B9: AB-009661 (antibody, V domains shown)
VH: QVQLVESGGGVVQPGRSLRLSCAASGFTFSSYGMHWVRQAPGKGLEWVAVISYDGSNKYYADSVKGRFTISRDNSKNTLYLQMNSLRAEDTAVYYCAKDYGDYGGMDVWGQGTTVTVSS
VL: not shown
- Pseudovirus Neturalization [2]: > 50 µg/mL
- Pseudovirus Neturalization [3]: > 50 µg/mL
- Neutralization (Infectious virus; (µg/mL)) [4]: 20.6 µg/mL

B10: AB-009791 (antibody, V domains shown)
VH: QLQLQESGPGLVKPSETLSLTCTVSGGSISSSSYYWGWIRQPPGKGLEWIGSIYYSGSTYYNPSLKSRVTISVDTSKNQFSLKLSSVTAADTAVYYCAREPRRVKQWLVVPYYYMDVWGKGTTVTVSS
VL: not shown
- Kd [7]: 4.61 nM
- koff [7]: 8.35e-05 s⁻¹
- kon [7]: 18100 M⁻¹ s⁻¹

B11: AB-009778 (antibody, V domains shown)
VH: QLQLQESGPGLVKPSETLSLTCTVSGGSISSSSYYWGWIRQPPGKGLEWIGSIYYSGSTYYNPSLKSRVTISVDTSKNQFSLKLSSVTAADTAVYYCARQFRRWLQLGPSYFDYWGQGTLVTVSS
VL: not shown
- Kd [7]: 48.5 nM
- koff [7]: 0.000866 s⁻¹
- kon [7]: 17800 M⁻¹ s⁻¹

B12: AB-009760 (antibody, V domains shown)
VH: EVQLVQSGAEVKKPGESLKISCKGSGYSFTSYWIGWVRQMPGKGLEWMGIIYPGDSDTRYSPSFQGQVTISADKSISTAYLQWSSLKASDTAMYYCARSRSSDYFDYWGQGTLVTVSS
VL: not shown
- Pseudovirus Neturalization [2]: > 50 µg/mL
- Pseudovirus Neturalization [3]: 4.1 µg/mL
- Neutralization (Infectious virus; (µg/mL)) [4]: 32.8 µg/mL

B13: AB-009610 (antibody, V domains shown)
VH: QVQLVQSGAEVKKPGSSVKVSCKASGGTFSNYAISWVRQAPGQGLEWMGRIIPILGIANYAQKFQGRVTITADKSTSTAYMELSSLRSEDTAVYYCATTPYYYDSSGYYLDYWGQGTLVTVSS
VL: not shown
- binding result [5]: no binding
- Pseudovirus Neturalization [2]: > 50 µg/mL
- Pseudovirus Neturalization [3]: 6.77 µg/mL
- Neutralization (Infectious virus; (µg/mL)) [4]: 6.25 µg/mL

B14: AB-009799 (antibody, V domains shown)
VH: QVQLVQSGAEVKKPGASVKVSCKASGYTFTSYDINWVRQATGQGLEWMGWMNPNSGNTGYAQKFQGRVTMTRNTSISTAYMELSSLRSEDTAVYYCARGRLRITIFNRVYYFDYWGQGTLVTVSS
VL: not shown
- Kd [7]: 19.6 nM
- koff [7]: 0.000265 s⁻¹
- kon [7]: 13600 M⁻¹ s⁻¹

B15: AB-009095 (antibody, V domains shown)
VH: EVQLVQSGAEVKKPGESLIISCTGSGYTFATFWITWVRQMPGKGLEWLGRIDPSDSYTNYNPSFQGHVTVSVDRSINTAYLELTSLKASDTAIYYCARQMYNTGWPIPNYSDYWGQGTLVTVSS
VL: QSALTQPPSASGSPGQSVTISCAGASTDVGVYNFVSWYQQHPGKAPKLIIFDVNKRPSGVPDRFSGSKSGNTASLTVSGLQAEDEADYYCSSYEVGNNFVFGTGTKVTVL
- Kd [6]: 0.176 nM
- koff [6]: 2.15e-07 s⁻¹
- kon [6]: 1220 M⁻¹ s⁻¹
- Kd [1]: 0.833 nM
- koff [1]: 5.93e-05 s⁻¹
- kon [1]: 71100 M⁻¹ s⁻¹

B16: AB-009615 (antibody, V domains shown)
VH: QVQLVESGGGVVQPGRSLRLSCAASGFTFSSYGMHWVRQAPGKGLEWVAVIWYDGSNKYYADSVKGRFTISRDNSKNTLYLQMNSLRAEDTAVYYCAKVGSPYCSGGSCYSGYFDYWGQGTLVTVSS
VL: not shown
- Pseudovirus Neturalization [2]: > 50 µg/mL
- Pseudovirus Neturalization [3]: 27.7 µg/mL
- Neutralization (Infectious virus; (µg/mL)) [4]: 12.3 µg/mL

B17: AB-009613 (antibody, V domains shown)
VH: EVQLVESGGGLIQPGGSLRLSCAASGFTVSSNYMSWVRQAPGKGLEWVSVIYSGGSTYYADSVKGRFTISRDNSKNTLYLQMNSLRAEDTAVYYCARDYGDFYFDYWGQGTLVTVSS
VL: not shown
- binding result [5]: no binding
- Pseudovirus Neturalization [2]: > 50 µg/mL
- Pseudovirus Neturalization [3]: 1.53 µg/mL
- Neutralization (Infectious virus; (µg/mL)) [4]: 3.4 µg/mL
